Source: patent US20140044730A1 (Regeneron, published 2014)

B1: VH-D106H/VK-L30H (antibody, IgG4, V domains shown)
VH: EMQLVESGGGLVQPGGSLRLSCAASGFTFSSHWMKWVRQAPGKGLEWVANINQDGSEKYYVDSVKGRFTISRDNAKNSLFLQMNSLRAEDTAVYYCARDIVLMVYHMDYYYYGMDVWGQGTTVTVSS
VL: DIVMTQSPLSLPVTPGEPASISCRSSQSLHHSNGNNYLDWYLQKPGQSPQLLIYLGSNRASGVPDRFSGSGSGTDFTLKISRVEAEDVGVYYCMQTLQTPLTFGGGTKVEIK
notes: double His variant of 300N; also called VH-D106/VK-L30H; VH-D016H/VK-L30H
B2: 316P(v1) (antibody, IgG1, V domains shown)
VH: EVQLVESGGGLVQPGGSLRLSCAASGFTFNNYAMNWVRQAPGKGLDWVSTISGSGGTTNYADSVKGRFIISRDSSKHTLYLQMNSLRAEDTAVYYCAKDSNWGNFDLWGRGTLVTVSS
VL: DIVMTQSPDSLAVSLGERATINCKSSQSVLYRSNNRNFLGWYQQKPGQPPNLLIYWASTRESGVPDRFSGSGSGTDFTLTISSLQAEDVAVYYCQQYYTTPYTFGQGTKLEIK
notes: also called 316(v1)

What was measured:
[1] = molecular target: T1, human PCSK9 with a C-terminal myc-myc-hexahistidine tag (human, UniProt Q8NBP7 31-692, limits assumed); experiment: SPR (Biacore), 37 °C; antibody captured on anti-human Fc surface, hPCSK9-mmH injected (3.125-50 nM); association at pH 7.4, dissociation at pH 7.2
T1 construct: also called hPCSK9-mmH; hPCSK9-mmh; not shown: C-terminal myc-myc-hexahistidine tag

[2] = molecular target: T1, human PCSK9 with a C-terminal …; experiment: SPR 25C, purified mAb captured
Description: (§1) A Biacore CM4 sensor chip was derivatized with a monoclonal mouse anti-human Fc antibody to capture human antibodies. The histidine substitution variant anti-PCSK9 antibodies were captured onto the anti-human Fc sensor surface from culture medium after transient expression in Chinese hamster ovary (CHO) cells. […] Kinetic association (kₐ) and dissociation (kd) rate constants were determined by processing and fitting the data to a 1:1 binding model using Scrubber 2.0 curve fitting software. Binding dissociation equilibrium constants (KD) and dissociative half-lives (t_{1/2}) were calculated from the kinetic rate constants as: KD (M)=kd/kₐ; and t_{1/2} (min)=(In2/(60*kd).
(§2) Also included in these experiments were several control/comparator antibodies. All measurements were taken at 25° C.

[3] = molecular target: T1, human PCSK9 with a C-terminal …; experiment: SPR 25C pH 6.0, purified mAb captured
Description: as §1, §2

[4] = molecular target: T1, human PCSK9 with a C-terminal …; experiment: blocking ELISA pH 7.2, 500 pM hPCSK9-mmH vs coated hLDLR EGFA-hFc, exp #2
Excerpt: The equilibrated sample solutions were then transferred to the LDLR EGFA-hFc coated plate prepared as described above.

[5] = molecular target: T1, human PCSK9 with a C-terminal …; experiment: SPR (Biacore), 37 °C; antibody captured on anti-human Fc surface, hPCSK9-mmH injected (3.125-50 nM); association at pH 7.4, dissociation at pH 5.75
Description: (§3) A Biacore CM4 sensor chip was derivatized with a Fab′2 polyclonal anti-human Fc antibody to capture human antibodies. […] Dissociation (kd) rate constants were determined by processing and fitting the data using Scrubber version 2.0 curve fitting software. Dissociative half-lives (t_{1/2}) were calculated from the dissociation rate constants as: t_{1/2} (min)=(In2/kd)/60.

[6] = molecular target: T1, human PCSK9 with a C-terminal …; experiment: blocking ELISA pH 7.2, 500 pM hPCSK9-mmH vs coated hLDLR EGFA-hFc
Description: (§4) Briefly, hLDLR EGFA-hFc was coated at 2 μg/mL in PBS on a 96-well microtiter plate overnight at 4° C. followed by blocking with a solution of 0.5% (w/v) BSA in PBS.
(§5) The equilibrated sample solutions were then transferred to a LDLR EGFA-hFc coated plate.

[7] = molecular target: T1, human PCSK9 with a C-terminal …; experiment: SPR (Biacore), 37 °C; antibody captured on anti-human Fc surface, hPCSK9-mmH injected (3.125-50 nM); association at pH 7.4, dissociation at pH 6.0
Description: as §3

[8] = molecular target: T1, human PCSK9 with a C-terminal …; experiment: SPR 25C pH 7.4, purified mAb captured
Description: as §1
All measurements were taken at 25° C.

[9] = molecular target: T1, human PCSK9 with a C-terminal …; experiment: blocking ELISA, hPCSK9-mmH vs coated hLDLR EGFA-hFc; non-blocking at pH 5.75
Description: as §4, §5

[10] = molecular target: T1, human PCSK9 with a C-terminal …; experiment: SPR (Biacore), 37 °C; antibody captured on anti-human Fc surface, hPCSK9-mmH injected (3.125-50 nM); association at pH 7.4, dissociation at pH 7.4
Description: as §3

[11] = molecular target: T1, human PCSK9 with a C-terminal …; experiment: cell-based or functional assay
[12] = molecular target: T1, human PCSK9 with a C-terminal …; experiment: SPR (Biacore), 37 °C; antibody captured on anti-human Fc surface, hPCSK9-mmH injected (3.125-50 nM); association at pH 7.4, dissociation at pH 7.4; remark: listed apart in the source
Description: as §3

[13] = molecular target: T1, human PCSK9 with a C-terminal …; experiment: SPR (Biacore), 37 °C; antibody captured on anti-human Fc surface, hPCSK9-mmH injected (3.125-50 nM); association at pH 7.4, dissociation at pH 6.0; remark: listed apart in the source
Description: as §3

[14] = molecular target: T1, human PCSK9 with a C-terminal …; experiment: SPR (Biacore), 37 °C; antibody captured on anti-human Fc surface, hPCSK9-mmH injected (3.125-50 nM); association at pH 7.4, dissociation at pH 5.75; remark: listed apart in the source
Description: as §3

[15] = molecular target: T1, human PCSK9 with a C-terminal …; experiment: blocking ELISA pH 7.2; actual obtained value, below theoretical bottom of the assay
Description: as §4, §5

[16] = molecular target: recombinant cynomolgus monkey PCSK9 with a C-terminal myc-myc hexahistidine tag (cynomolgus monkey, UniProt A8T662 31-692 (Macaca nemestrina entry), limits assumed); experiment: cell-based or functional assay
[17] = molecular target: human PCSK9 with a C-terminal myc-myc hexahistidine tag and a D374Y mutation (human, UniProt Q8NBP7 31-692, limits assumed); experiment: cell-based or functional assay
[18] = molecular target: T1, human PCSK9 with a C-terminal …; experiment: cell-based or functional assay; remark: listed apart in the source
[19] = molecular target: T1, human PCSK9 with a C-terminal …; experiment: blocking ELISA pH 5.75, 500 pM hPCSK9-mmH vs coated hLDLR EGFA-hFc
Description: as §4, §5

[20] = molecular target: T1, human PCSK9 with a C-terminal …; experiment: blocking ELISA pH 5.75; actual obtained value, below theoretical bottom of the assay
Description: as §4, §5

[21] = molecular target: T1, human PCSK9 with a C-terminal …; experiment: SPR (Biacore), 37 °C; antibody captured on anti-human Fc surface, hPCSK9-mmH injected (3.125-50 nM); association at pH 7.4, dissociation at pH 7.2; remark: listed apart in the source
Description: as §3

[22] = molecular target: T1, human PCSK9 with a C-terminal …; experiment: blocking ELISA, hPCSK9-mmH vs coated hLDLR EGFA-hFc
Description: as §4, §5

Row | Binder | KD ratio pH 6.0/pH 7.4 [2] | ka ratio pH 6.0/pH 7.4 [2] | kd ratio pH 6.0/pH 7.4 [2] | t½ ratio pH 6.0/pH 7.4 [2] | Kd [3] | koff [3] | kon [3] | t½ [3] | IC50 [6] | Kd [8] | koff [8] | kon [8] | t½ [8] | further results
1 | B1 | 15.7 | 1.79 | 28.4 | 0.04 | 42.1 nM | 0.0079 s⁻¹ | 186000 M⁻¹ s⁻¹ | 1.5 min | 0.354 nM | 2.68 nM | 0.000278 s⁻¹ | 104000 M⁻¹ s⁻¹ | 41.5 min | t½ (dissociative half-life) [1]: 8.9 min; IC50 [4]: 0.461 nM; t½ (dissociative half-life) [5]: 0.1 min; t½ (dissociative half-life) [7]: 0.2 min; IC50 ratio (pH 5.75/pH 7.2) [9]: > 500; t½ (dissociative half-life) [10]: 8.7 min
2 | B2 | 0.41 | 1.3 | 0.53 | 1.89 | 0.25 nM | 0.000162 s⁻¹ | 649000 M⁻¹ s⁻¹ | 71.1 min | < 0.125 nM | 0.616 nM | 0.000308 s⁻¹ | 499000 M⁻¹ s⁻¹ | 37.6 min | IC50, LDL uptake in HepG2 cells, 100 nM hPCSK9-mmH [11]: 31 nM; t½ (dissociative half-life) [12]: 7 min; t½ (dissociative half-life) [13]: 13 min; t½ (dissociative half-life) [14]: 27.8 min; IC50 [15]: 0.064 nM; IC50, LDL uptake in HepG2 cells, 50 nM MfPCSK9-mmH [16]: 10.3 nM; IC50, LDL uptake in HepG2 cells, 2 nM hPCSK9-D374Y-mmH [17]: 2 nM; IC50, LDL uptake in HepG2 cells, 50 nM hPCSK9-mmH [18]: 7.8 nM; IC50 [19]: < 0.125 nM; IC50 [20]: 0.113 nM; t½ (dissociative half-life) [21]: 13.8 min; IC50 ratio (pH 5.75/pH 7.2) [22]: 1.8
